Here are results for one molecule from article PMC8654305.

This test has as its target recombinant C-terminal StrepII-tagged ScSbtB (SbtB from Synechocystis sp. PCC 6803) (Synechocystis sp. PCC 6803), P73954. Description: crystal structure. Conditions: remark: other sources report otherwise.

A word on the stoichiometry N: it is a count of units in the complex or per binding partner.

B1: recombinant C-terminal StrepII-tagged ScSbtB (SbtB from Synechocystis sp. PCC 6803), P73954 1-110 (natural protein)
chain: MAKPANKLVIVTEKILLKKIAKIIDESGAKGYTVMNTGGKGSRNVRSSGQPNTSDIEANIKFEILTETREMAEEIADRVAVKYFNDYAGIIYICSAEVLYGHTFCGPEGC
B1: the stoichiometry N was 3.
